± gives the uncertainty stated by the source.
Assay: self-splicing fitness, log relative to wild type (ln ratio); higher = more splicing; Tetrahymena group I intron in knt gene, E. coli kanamycin selection, DiMSum; sequences stand for … in CUCUCU…GGAGGGAAAAGUUAUCAGGCAUGCACCUGGUAGCUAGUCUUUAAACCAAUAGAUUGCAUCGGUUUAAAAGGCAAGACCGUCAAAUUGCGGGAAAGGGGUCAACAGCCGUUCAGUACCAAGUCUCAGGGGAAACUUUGAGAUGGCCUUGCAAAGGGUAUGGUAAUAAGCUGACGGACAUGGUCCUAACCACGCAGCCAAGUCCUAAGUCAACAGAUCUUCUGUUGAUAUGGAUGCAGUUCACAGACUAAAUGUCGGUCGGGGAAGAUGUAUUCUUCUCAUAAGAUAUAGUCGGACCUCUCCUUAAUGGGAGCUAGCGGAUGAAGUGAUGCAACACUGGAGCCGCUGGGAACUAAUUUGUAUGCGAAAGUAUAUUGAUUAGUUUUGGAGUACUCGUGGUCG
Method in brief: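 Library with all eight P1ex-region intron nucleotides randomised, intron inside the knt kanamycin-resistance gene on pET-22b(+), in E. coli BL21(DE3). Cells grew overnight at 37°C or 30°C on LB agar with or without 25 μg/mL kanamycin (plus 100 μg/mL carbenicillin, 50 μM IPTG, 0.2% rhamnose), in six replicate transformations. Pooled colonies were amplicon-sequenced on Illumina HiSeq 2500. DiMSum fitness is the error-weighted combination of wild-type-normalised replicate fold changes, kanamycin versus none.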

| Sequence | self-splicing fitness (ln) (30 °C) | self-splicing fitness (ln) (37 °C) |
| --- | --- | --- |
| CGGUAGCAAUAUUACGGUCG | -2.62 ± 0.21 | -1.65 ± 0.25 |
| CGGUAGCAAUAUUACGUAUA | -3.71 ± 0.24 | -2.53 ± 0.18 |
| CGGUAGCAAUAUUACGUAUC | -2.67 ± 0.15 | -2.83 ± 0.29 |
| CGGUAGCAAUAUUACGUCAC | -2.59 ± 0.34 | -1.82 ± 0.48 |
| CGGUAGCAAUAUUACGUCUU | -0.667 ± 0.1 | 0.17 ± 0.12 |
| CGGUAGCAAUAUUACGUGAC |  | -2.73 ± 0.41 |
| CGGUAGCAAUAUUACGUGGA | -4.03 ± 0.27 | -2.26 ± 0.17 |
| CGGUAGCAAUAUUACGUUCC | -4.16 ± 0.33 | -1.9 ± 0.26 |
| CGGUAGCAAUAUUACGUUGC | -2.1 ± 0.14 | -2.85 ± 0.33 |
| CGGUAGCAAUAUUACGUUUG | -0.275 ± 0.082 | -0.027 ± 0.098 |
| CGUAAGCAAUAUUACGAAAU | -3.16 ± 0.27 | -1.86 ± 0.25 |
| CGUAAGCAAUAUUACGAGCU | -3.7 ± 0.37 | -2.53 ± 0.41 |
| CGUAAGCAAUAUUACGAGUC | -2.82 ± 0.4 | -1.92 ± 0.34 |
| CGUAAGCAAUAUUACGCGAG | -1.63 ± 0.2 | -2.56 ± 0.44 |
| CGUAAGCAAUAUUACGCUGG | -1.56 ± 0.12 | -0.793 ± 0.11 |
| CGUAAGCAAUAUUACGCUUU | -3.21 ± 0.23 | -2.31 ± 0.2 |
| CGUAAGCAAUAUUACGGCCC |  | -1.43 ± 0.3 |
| CGUAAGCAAUAUUACGUAGU | -3.74 ± 0.27 | -1.48 ± 0.18 |
| CGUAAGCAAUAUUACGUGAU | -3.93 ± 0.31 | -2.57 ± 0.24 |
| CGUAAGCAAUAUUACGUGCU | -3.24 ± 0.21 | -1.94 ± 0.21 |
| CGUCAGCAAUAUUACGAAGA | -2.26 ± 0.19 | -2.09 ± 0.23 |
| CGUCAGCAAUAUUACGACAC | -1 ± 0.14 | 0.484 ± 0.13 |
| CGUCAGCAAUAUUACGACUU | -0.191 ± 0.069 | 0.132 ± 0.08 |
| CGUCAGCAAUAUUACGAGUG | -0.944 ± 0.056 | -0.00372 ± 0.077 |
| CGUCAGCAAUAUUACGAUCU | -1.09 ± 0.086 | -0.0587 ± 0.11 |
| CGUCAGCAAUAUUACGAUUC | -0.695 ± 0.096 | 0.147 ± 0.087 |
| CGUCAGCAAUAUUACGAUUG | -0.506 ± 0.076 | -0.162 ± 0.084 |

| Sequence | self-splicing fitness (ln) (30 °C) | self-splicing fitness (ln) (37 °C) |
| --- | --- | --- |
| CGUCAGCAAUAUUACGCAGC | -3.34 ± 0.2 | -2.26 ± 0.19 |
| CGUCAGCAAUAUUACGCCCA | -0.52 ± 0.12 | -0.0594 ± 0.14 |
| CGUCAGCAAUAUUACGCGGU | -2.93 ± 0.16 | -2.27 ± 0.19 |
| CGUCAGCAAUAUUACGGAAC | -2.22 ± 0.27 | -2.61 ± 0.25 |
| CGUCAGCAAUAUUACGGGGG | -3.62 ± 0.2 | -2.05 ± 0.14 |
| CGUCAGCAAUAUUACGGUAA | -1.1 ± 0.26 | -1.3 ± 0.23 |
| CGUCAGCAAUAUUACGGUGU | -2.66 ± 0.12 | -0.454 ± 0.1 |
| CGUCAGCAAUAUUACGUAAA | -1.97 ± 0.06 | -1.21 ± 0.097 |
| CGUCAGCAAUAUUACGUAUA |  | -0.724 ± 0.16 |
| CGUCAGCAAUAUUACGUGAG | -0.162 ± 0.04 | -0.124 ± 0.061 |
| CGUCAGCAAUAUUACGUUAA | -3.28 ± 0.17 | -2.38 ± 0.14 |
| CGUCAGCAAUAUUACGUUUA | -2.93 ± 0.18 | -1.66 ± 0.16 |
| CGUCAGCAAUAUUACGUUUG | -1.14 ± 0.062 | -0.102 ± 0.079 |
| CGUGAGCAAUAUUACGAACC | -1.44 ± 0.18 | -0.0387 ± 0.24 |
| CGUGAGCAAUAUUACGAACU | -2.23 ± 0.3 | -0.177 ± 0.29 |
| CGUGAGCAAUAUUACGAAGA | -1.53 ± 0.37 |  |
| CGUGAGCAAUAUUACGAGGG | -3.77 ± 0.3 | -2.36 ± 0.25 |
| CGUGAGCAAUAUUACGCAGU | -3.4 ± 0.41 | -2.03 ± 0.44 |
| CGUGAGCAAUAUUACGCGAG | -1.12 ± 0.21 |  |
| CGUGAGCAAUAUUACGGAGG | -2.69 ± 0.17 | -0.9 ± 0.14 |
| CGUGAGCAAUAUUACGGGAU | -3.49 ± 0.22 | -2.24 ± 0.21 |
| CGUGAGCAAUAUUACGGGUG | -0.878 ± 0.067 | -0.658 ± 0.078 |
| CGUGAGCAAUAUUACGGUCC | -3.39 ± 0.24 | -1.69 ± 0.24 |
| CGUGAGCAAUAUUACGGUGG | -2.03 ± 0.082 | -1.35 ± 0.1 |
| CGUGAGCAAUAUUACGGUUG | -1.49 ± 0.07 | -0.412 ± 0.094 |
| CGUGAGCAAUAUUACGUGGA | -3.06 ± 0.15 | -2.11 ± 0.14 |
| CGUUAGCAAUAUUACGACAU | -1.529 ± 0.015 | -0.592 ± 0.033 |

| Sequence | self-splicing fitness (ln) (30 °C) | self-splicing fitness (ln) (37 °C) |
| --- | --- | --- |
| CGUUAGCAAUAUUACGCGCU | -1.9 ± 0.2 | -1.73 ± 0.17 |
| CGUUAGCAAUAUUACGCGUC | -3.47 ± 0.23 |  |
| CGUUAGCAAUAUUACGGCUA | -2.27 ± 0.37 |  |
| CGUUAGCAAUAUUACGGCUU | -0.864 ± 0.16 | -2.39 ± 0.31 |
| CGUUAGCAAUAUUACGGGCA | -0.756 ± 0.15 | -1.2 ± 0.11 |
| CGUUAGCAAUAUUACGGGUU | -3.4 ± 0.24 | -2.42 ± 0.25 |
| CGUUAGCAAUAUUACGGUGA | -2.76 ± 0.21 | -0.883 ± 0.16 |
| CGUUAGCAAUAUUACGUCUA | -3 ± 0.28 | -2.33 ± 0.24 |
| CGUUAGCAAUAUUACGUGGU | -4.09 ± 0.26 | -2.6 ± 0.28 |
| CGUUAGCAAUAUUACGUGUU | -4.58 ± 0.22 | -3.04 ± 0.17 |
| CUAAAGCAAUAUUACGAAUC | -4.03 ± 0.14 | -2.46 ± 0.16 |
| CUAAAGCAAUAUUACGACAU | -3.986 ± 0.024 | -2.72 ± 0.039 |
| CUAAAGCAAUAUUACGACCU | -4.28 ± 0.46 | -1.97 ± 0.22 |
| CUAAAGCAAUAUUACGAGAU | -2.72 ± 0.16 | -2.05 ± 0.23 |
| CUAAAGCAAUAUUACGAUCC | -2.81 ± 0.27 | -1.13 ± 0.36 |
| CUAAAGCAAUAUUACGAUGA | -2.57 ± 0.11 | -0.323 ± 0.1 |
| CUAAAGCAAUAUUACGAUUA | -2.51 ± 0.092 | -1.19 ± 0.12 |
| CUAAAGCAAUAUUACGCAUC | -4.03 ± 0.35 |  |
| CUAAAGCAAUAUUACGCCAA | -4.58 ± 0.32 | -3.1 ± 0.37 |
| CUAAAGCAAUAUUACGCCAG | -0.416 ± 0.13 | 0.13 ± 0.19 |
| CUAAAGCAAUAUUACGCGAG | -0.464 ± 0.077 | 0.0633 ± 0.11 |
| CUAAAGCAAUAUUACGCGGG | -2.27 ± 0.13 | -2.03 ± 0.15 |
| CUAAAGCAAUAUUACGCGUA | -3.35 ± 0.18 | -2.63 ± 0.21 |
| CUAAAGCAAUAUUACGCUAA | -5.16 ± 0.45 |  |
| CUAAAGCAAUAUUACGGCUA | -3.85 ± 0.21 | -2.34 ± 0.25 |

Reference: the supplement of paper PMC7877785
